Assay results taken from US20220401557A1 (Chugai, published 2022).

Target: CD3 on NFAT-RE-luc2-Jurkat cells (human, UniProt P07766 23-207)
Test: cell-based or functional assay

Sequence of CD3 on NFAT-RE-luc2-Jurkat cells (P07766 23-207): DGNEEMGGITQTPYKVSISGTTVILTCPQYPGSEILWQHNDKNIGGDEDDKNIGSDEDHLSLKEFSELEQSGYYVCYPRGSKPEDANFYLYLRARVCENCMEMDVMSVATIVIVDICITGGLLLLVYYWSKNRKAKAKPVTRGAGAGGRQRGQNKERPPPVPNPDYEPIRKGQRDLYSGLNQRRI

| increase rate due to the protease treatment (luciferase, uPA-treated / untreated), antibody 0.1 nM [ratio] | increase rate due to the protease treatment (luciferase, uPA-treated / untreated), antibody 1 nM [ratio] | Binder |
| --- | --- | --- |
| 1.1 | 8.2 | hCE115HA/GLSuPA04//GCH065 (bispecific antibody, human IgG1, kappa, N297A) heavy 1: QVQLVESGGGVVQPGRSLRLSCAASGFTFSNAWMHWVRQAPGKGLEWVAQIKAKSNNYATYYAESVKGRFTISRDDSKNSLYLQMNSLKTEDTAVYYCRYVHYGAYYGVDAWGQGTTVTVSSASTKGPSVFPLAPSSKSTSGGTAALGCLVKDYFPEPVTVSWNSGALTSGVHTFPAVLQSSGLYSLSSVVTVPSSSLGTQTYICNVNHKPSNTKVDKKVEPKSCDKTHTCPPCPAPELRGGPKVFLFPPKPKDTLMISRTPEVTCVVVDVSHEDPEVKFNWYVDGVEVHNAKTKPREEQYASTYRVVSVLTVLHQDWLNGKEYKCKVSNKALPAPIEKTISKAKGQPREPQVYTLPPSRKEMTKNQVSLTCLVKGFYPSDIAVEWESNGQPENNYKTTPPYLDSDGSFFLYSKLTVDKSRWQQGNVFSCSVMHEALHNHYTQKSLSLSP light 1: QDGNEEMGGGSGGGSGGGSLSGRSDNHGGGSDIVMTQSPLSLPVTPGEPASISCRSSQSLVHSNRNTYLHWYQQKPGQAPRLLIYKVSNRFSGVPDRFSGSGSGTDFTLKISRVEAEDVGVYYCGQGTQVPYTFGQGTKLEIKRTVAAPSVFIFPPSDEQLKSGTASVVCLLNNFYPREAKVQWKVDNALQSGNSQESVTEQDSKDSTYSLSSTLTLSKADYEKHKVYACEVTHQGLSSPVTKSFNRGEC heavy 2: QVQLVQSGAEVKKPGASVTVSCKASGYTFTDYEMHWIRQPPGEGLEWIGAIDGPTPDTAYSEKFKGRVTLTADKSTSTAYMELSSLTSEDTAVYYCTRFYSYTYWGQGTLVTVSSASTKGPSVFPLAPSSKSTSGGTAALGCLVKDYFPEPVTVSWNSGALTSGVHTFPAVLQSSGLYSLSSVVTVPSSSLGTQTYICNVNHKPSNTKVDKKVEPKSCDKTHTCPPCPAPELRGGPKVFLFPPKPKDTLMISRTPEVTCVVVDVSHEDPEVKFNWYVDGVEVHNAKTKPREEQYASTYRVVSVLTVLHQDWLNGKEYKCKVSNKALPAPIEKTISKAKGQPREPQVYTLPPSREEMTKNQVSLTCLVKGFYPSDIAVEWESNGQPENNYKTTPPYLDSDGSFFLYSKLTVDKSRWQQGNVFSCSVMHEALHNHYTQESLSLSP light 2: DIVMTQSPLSLPVTPGEPASISCRSSQPLVHSNRNTYLHWYQQKPGQAPRLLIYKVSNRFSGVPDRFSGSGSGTDFTLKISRVEAEDVGVYYCGQGTQVPYTFGQGTKLEIKRTVAAPSVFIFPPSDEQLKSGTASVVCLLNNFYPREAKVQWKVDNALQSGNSQESVTEQDSKDSTYSLSSTLTLSKADYEKHKVYACEVTHQGLSSPVTKSFNRGEC |
| 1 | 1 | hCE115HAGS/GLS//GCH065 (bispecific antibody, human IgG1, kappa, N297A) heavy 1: QDGNEGGGSGGGSQVQLVESGGGVVQPGRSLRLSCAASGFTFSNAWMHWVRQAPGKGLEWVAQIKAKSNNYATYYAESVKGRFTISRDDSKNSLYLQMNSLKTEDTAVYYCRYVHYGAYYGVDAWGQGTTVTVSSASTKGPSVFPLAPSSKSTSGGTAALGCLVKDYFPEPVTVSWNSGALTSGVHTFPAVLQSSGLYSLSSVVTVPSSSLGTQTYICNVNHKPSNTKVDKKVEPKSCDKTHTCPPCPAPELRGGPKVFLFPPKPKDTLMISRTPEVTCVVVDVSHEDPEVKFNWYVDGVEVHNAKTKPREEQYASTYRVVSVLTVLHQDWLNGKEYKCKVSNKALPAPIEKTISKAKGQPREPQVYTLPPSRKEMTKNQVSLTCLVKGFYPSDIAVEWESNGQPENNYKTTPPYLDSDGSFFLYSKLTVDKSRWQQGNVFSCSVMHEALHNHYTQKSLSLSP light 1: DIVMTQSPLSLPVTPGEPASISCRSSQSLVHSNRNTYLHWYQQKPGQAPRLLIYKVSNRFSGVPDRFSGSGSGTDFTLKISRVEAEDVGVYYCGQGTQVPYTFGQGTKLEIKRTVAAPSVFIFPPSDEQLKSGTASVVCLLNNFYPREAKVQWKVDNALQSGNSQESVTEQDSKDSTYSLSSTLTLSKADYEKHKVYACEVTHQGLSSPVTKSFNRGEC heavy 2: QVQLVQSGAEVKKPGASVTVSCKASGYTFTDYEMHWIRQPPGEGLEWIGAIDGPTPDTAYSEKFKGRVTLTADKSTSTAYMELSSLTSEDTAVYYCTRFYSYTYWGQGTLVTVSSASTKGPSVFPLAPSSKSTSGGTAALGCLVKDYFPEPVTVSWNSGALTSGVHTFPAVLQSSGLYSLSSVVTVPSSSLGTQTYICNVNHKPSNTKVDKKVEPKSCDKTHTCPPCPAPELRGGPKVFLFPPKPKDTLMISRTPEVTCVVVDVSHEDPEVKFNWYVDGVEVHNAKTKPREEQYASTYRVVSVLTVLHQDWLNGKEYKCKVSNKALPAPIEKTISKAKGQPREPQVYTLPPSREEMTKNQVSLTCLVKGFYPSDIAVEWESNGQPENNYKTTPPYLDSDGSFFLYSKLTVDKSRWQQGNVFSCSVMHEALHNHYTQESLSLSP light 2: DIVMTQSPLSLPVTPGEPASISCRSSQPLVHSNRNTYLHWYQQKPGQAPRLLIYKVSNRFSGVPDRFSGSGSGTDFTLKISRVEAEDVGVYYCGQGTQVPYTFGQGTKLEIKRTVAAPSVFIFPPSDEQLKSGTASVVCLLNNFYPREAKVQWKVDNALQSGNSQESVTEQDSKDSTYSLSSTLTLSKADYEKHKVYACEVTHQGLSSPVTKSFNRGEC |
| 1.6 | 3 | hCE115HA/GLSuPA20//GCH065 (bispecific antibody, human IgG1, kappa, N297A) heavy 1: QVQLVESGGGVVQPGRSLRLSCAASGFTFSNAWMHWVRQAPGKGLEWVAQIKAKSNNYATYYAESVKGRFTISRDDSKNSLYLQMNSLKTEDTAVYYCRYVHYGAYYGVDAWGQGTTVTVSSASTKGPSVFPLAPSSKSTSGGTAALGCLVKDYFPEPVTVSWNSGALTSGVHTFPAVLQSSGLYSLSSVVTVPSSSLGTQTYICNVNHKPSNTKVDKKVEPKSCDKTHTCPPCPAPELRGGPKVFLFPPKPKDTLMISRTPEVTCVVVDVSHEDPEVKFNWYVDGVEVHNAKTKPREEQYASTYRVVSVLTVLHQDWLNGKEYKCKVSNKALPAPIEKTISKAKGQPREPQVYTLPPSRKEMTKNQVSLTCLVKGFYPSDIAVEWESNGQPENNYKTTPPYLDSDGSFFLYSKLTVDKSRWQQGNVFSCSVMHEALHNHYTQKSLSLSP light 1: QDGNEEMGGITQTPYKVSISLSGRSDNHGGGSDIVMTQSPLSLPVTPGEPASISCRSSQSLVHSNRNTYLHWYQQKPGQAPRLLIYKVSNRFSGVPDRFSGSGSGTDFTLKISRVEAEDVGVYYCGQGTQVPYTFGQGTKLEIKRTVAAPSVFIFPPSDEQLKSGTASVVCLLNNFYPREAKVQWKVDNALQSGNSQESVTEQDSKDSTYSLSSTLTLSKADYEKHKVYACEVTHQGLSSPVTKSFNRGEC heavy 2: QVQLVQSGAEVKKPGASVTVSCKASGYTFTDYEMHWIRQPPGEGLEWIGAIDGPTPDTAYSEKFKGRVTLTADKSTSTAYMELSSLTSEDTAVYYCTRFYSYTYWGQGTLVTVSSASTKGPSVFPLAPSSKSTSGGTAALGCLVKDYFPEPVTVSWNSGALTSGVHTFPAVLQSSGLYSLSSVVTVPSSSLGTQTYICNVNHKPSNTKVDKKVEPKSCDKTHTCPPCPAPELRGGPKVFLFPPKPKDTLMISRTPEVTCVVVDVSHEDPEVKFNWYVDGVEVHNAKTKPREEQYASTYRVVSVLTVLHQDWLNGKEYKCKVSNKALPAPIEKTISKAKGQPREPQVYTLPPSREEMTKNQVSLTCLVKGFYPSDIAVEWESNGQPENNYKTTPPYLDSDGSFFLYSKLTVDKSRWQQGNVFSCSVMHEALHNHYTQESLSLSP light 2: DIVMTQSPLSLPVTPGEPASISCRSSQPLVHSNRNTYLHWYQQKPGQAPRLLIYKVSNRFSGVPDRFSGSGSGTDFTLKISRVEAEDVGVYYCGQGTQVPYTFGQGTKLEIKRTVAAPSVFIFPPSDEQLKSGTASVVCLLNNFYPREAKVQWKVDNALQSGNSQESVTEQDSKDSTYSLSSTLTLSKADYEKHKVYACEVTHQGLSSPVTKSFNRGEC |
| 1 | 2.3 | hCE115HA/GLSuPA27//GCH065 (bispecific antibody, human IgG1, kappa, N297A) heavy 1: QVQLVESGGGVVQPGRSLRLSCAASGFTFSNAWMHWVRQAPGKGLEWVAQIKAKSNNYATYYAESVKGRFTISRDDSKNSLYLQMNSLKTEDTAVYYCRYVHYGAYYGVDAWGQGTTVTVSSASTKGPSVFPLAPSSKSTSGGTAALGCLVKDYFPEPVTVSWNSGALTSGVHTFPAVLQSSGLYSLSSVVTVPSSSLGTQTYICNVNHKPSNTKVDKKVEPKSCDKTHTCPPCPAPELRGGPKVFLFPPKPKDTLMISRTPEVTCVVVDVSHEDPEVKFNWYVDGVEVHNAKTKPREEQYASTYRVVSVLTVLHQDWLNGKEYKCKVSNKALPAPIEKTISKAKGQPREPQVYTLPPSRKEMTKNQVSLTCLVKGFYPSDIAVEWESNGQPENNYKTTPPYLDSDGSFFLYSKLTVDKSRWQQGNVFSCSVMHEALHNHYTQKSLSLSP light 1: QDGNEEMGGITQTPYKVSISGTTVILTLSGRSDNHDIVMTQSPLSLPVTPGEPASISCRSSQSLVHSNRNTYLHWYQQKPGQAPRLLIYKVSNRFSGVPDRFSGSGSGTDFTLKISRVEAEDVGVYYCGQGTQVPYTFGQGTKLEIKRTVAAPSVFIFPPSDEQLKSGTASVVCLLNNFYPREAKVQWKVDNALQSGNSQESVTEQDSKDSTYSLSSTLTLSKADYEKHKVYACEVTHQGLSSPVTKSFNRGEC heavy 2: QVQLVQSGAEVKKPGASVTVSCKASGYTFTDYEMHWIRQPPGEGLEWIGAIDGPTPDTAYSEKFKGRVTLTADKSTSTAYMELSSLTSEDTAVYYCTRFYSYTYWGQGTLVTVSSASTKGPSVFPLAPSSKSTSGGTAALGCLVKDYFPEPVTVSWNSGALTSGVHTFPAVLQSSGLYSLSSVVTVPSSSLGTQTYICNVNHKPSNTKVDKKVEPKSCDKTHTCPPCPAPELRGGPKVFLFPPKPKDTLMISRTPEVTCVVVDVSHEDPEVKFNWYVDGVEVHNAKTKPREEQYASTYRVVSVLTVLHQDWLNGKEYKCKVSNKALPAPIEKTISKAKGQPREPQVYTLPPSREEMTKNQVSLTCLVKGFYPSDIAVEWESNGQPENNYKTTPPYLDSDGSFFLYSKLTVDKSRWQQGNVFSCSVMHEALHNHYTQESLSLSP light 2: DIVMTQSPLSLPVTPGEPASISCRSSQPLVHSNRNTYLHWYQQKPGQAPRLLIYKVSNRFSGVPDRFSGSGSGTDFTLKISRVEAEDVGVYYCGQGTQVPYTFGQGTKLEIKRTVAAPSVFIFPPSDEQLKSGTASVVCLLNNFYPREAKVQWKVDNALQSGNSQESVTEQDSKDSTYSLSSTLTLSKADYEKHKVYACEVTHQGLSSPVTKSFNRGEC |
